Where two headings read alike, the source gives them in different places.
Assays:
[1] = rat, in vivo; cited from earlier work
Description: Drug administration to the retina and vitreous body is challenging. Drugs applied to the surface of the eye rarely penetrate the ocular surface or enter into the vitreous body and the retina ([Gaudana et al., 2010]). Biological barriers such as the cornea, conjunctiva and the tear film limit penetration and bioavailability of topical drug preparations to the posterior segment of the eye and therefore direct injection of drugs to the vitreous is commonly used to target drugs to the retina ([Ayalasomayajula and Kompella, 2005; Carneiro et al., 2009; Eldaly and Styles, 2009; Yasukawa et al., 2001 ...

[2] = tested on: RGC axons; conditions: administration of CNTF after ONC; ref Vigneswara et al., 2013; cited from earlier work
[3] = tested on: βIII-tubulin+ retinal neurons; conditions: CNTF 440.5 pM, 4 days in culture
Description: For all in vitro experiments, adult 6–8-week-old female Sprague–Dawley rats weighing 170–220 g were used. Culture experiments included retinal cells treated with: (1), Neurobasal-A (NBA) alone (Control); and equimolar concentrations of (2), 2.16; (3) 5.4; (4), 10.8 and (5), 21.6 pM PEDF-34/-44; and (6), ciliary neurotrophic factor (CNTF: Peprotech, London, UK), as a positive control at an optimal neuroprotective/axogenic concentration of 440.5 pM, established by us previously ([Ahmed et al., 2009; Douglas et al., 2009]). […] All experiments were performed in triplicate and repeated on three independent occasions.
Mixed adult rat retinal cultures containing enriched populations of retinal neurons, including RGCs, were prepared from 6–8-week-old adult female Sprague–Dawley rats, as described previously ([Ahmed et al., 2006b, 2009, 2010; Douglas et al., 2009; Vigneswara et al., 2013]). Briefly, retinal cells were dissociated using a Papain dissociation kit according to the manufacturer's instructions (Worthington Biochemicals, Lakewood, NJ, USA). […]
The mean number of βIII-tubulin^+ neurons surviving, with neurites and the mean neurite length were quantified as described by us previously ([Vigneswara et al., 2013, 2014]). Briefly, chamber slides were anonymised by a second investigator and βIII-tubulin^+ neuronal soma and neurites quantified in 9 quadrants/well using Axiovision software (Version 4.8; Zeiss) and ImagePro (Version 6.3; Media Cybernetics, Bethesda, MD, USA). Of the 125,000 cells/well plated, the total numbers of neurons in each experiment were determined by βIII-tubulin^+ immunocytochemistry after allowing 30 min for cells to adhere to glass culture slides. […] Neurite outgrowth from at least 180 neurons/condition from the 9 wells was measured, except in control (NBA) cultures, in which a total of 108 neurons were measured.

[4] = tested on: RGC; conditions: intravitreal injections, ref Cheng et al., 2002, Kermer et al., 1998, Kurokawa et al., 1999, Monnier et al., 2011, Parrilla-Reverter et al., 2009, cited from earlier work
Description: Other commonly used retinal neuron/RGC neuroprotective factors include BDNF, glial-derived neurotrophic factor (GDNF), neurotrophin (NT)-3, NT-4/5, as well as caspase inhibitors ([Cheng et al., 2002; Kermer et al., 1998; Kurokawa et al., 1999; Monnier et al., 2011; Parrilla-Reverter et al., 2009]). Although intravitreal injections of BDNF protect 100% of RGC for 7 days, efficiency declines to 60% by 21 days. Most neuroprotective strategies tested support the survival of a maximum of 60% of RGC at 2 weeks after injury ([Cheng et al., 2002; Kermer et al., 1998; Kurokawa et al., 1999; Monnier et ...

[5] = tested on: retinal ganglion cells (RGCs); conditions: intravitreal delivery at 0, 7 and 14 days after ONC, equimolar concentrations, 21 days after ONC; ref Vigneswara et al., 2013; cited from earlier work
Method: Here we wished to confirm that, in vivo, PEDF-34 was more neuroprotective than full length PEDF. After intravitreal injection of vehicle + 0 nM PEDF-34, 295 ± 15 FG^+ RGC/mm^2 survived 21 days after ONC + PBS (0 nM PEDF-34) (Fig. 2A and B). Increasing the dose of ...

^125I-labelled nerve growth factor: 125I-labelled nerve growth factor (26 kDa)
time of peak accumulation in the retina and optic nerve [1]: 6 h

B1: CNTF: ciliary neurotrophic factor (Peprotech), positive control at 440.5 pM (protein, UniProt P26441 1-200, looked up)
Ciliary neurotrophic factor: MAFTEHSPLTPHRRDLCSRSIWLARKIRSDLTALTESYVKHQGLNKNINLDSADGMPVASTDQWSELTEAERLQENLQAYRTFHVLLARLLEDQQVHFTPTEGDFHQAIHTLLLQVAAFAYQIEELMILLEYKIPRNEADGMPINVGDGGLFEKKLWGLKVLQELSQWTVRSIHDLRFISSHQTGIPARGSHYIANNKKM
RGC axon regeneration after ONC [2]: limited RGC axon regeneration
fold increase in βIII-tubulin+ neuron survival compared to untreated cultures [3]: 1.9 fold

B2: BDNF: brain-derived neurotrophic factor (protein, UniProt P23560 19-247, looked up)
Neurotrophic factor BDNF …: APMKEANIRGQGGLAYPGVRTHGTLESVNGPKAGSRGLTSLADTFEHVIEELLDEDQKVRPNEENNKDADLYTSRVMLSSQVPLEPPLLFLLEEYKNYLDAANMSMRVRRHSDPARRGELSVCDSISEWVTAADKKTAVDMSGGTVTVLEKVPVSKGQLKQYFYETKCNPMGYTKEGCRGIDKRHWNSQCRTTQSYVRALTMDSKKRIGWRFIRIDTSCVCTLTIKRGR
RGC protected ([4]; 7 days): 100%
RGC protected ([4]; by 21 days): 60%

B3: full length PEDF: 50 kDa neurotrophic factor, member of the serpin superfamily (protein, UniProt P36955 1-418, looked up)
chain: MQALVLLLCIGALLGHSSCQNPASPPEEGSPDPDSTGALVEEEDPFFKVPVNKLAAAVSNFGYDLYRVRSSTSPTTNVLLSPLSVATALSALSLGAEQRTESIIHRALYYDLISSPDIHGTYKELLDTVTAPQKNLKSASRIVFEKKLRIKSSFVAPLEKSYGTRPRVLTGNPRLDLQEINNWVQAQMKGKLARSTKEIPDEISILLLGVAHFKGQWVTKFDSRKTSLEDFYLDEERTVRVPMMSDPKAVLRYGLDSDLSCKIAQLPLTGSMSIIFFLPLKVTQNLTLIEESLTSEFIHDIDRELKTVQAVLTVPKLKLSYEGEVTKSLQEMKLQSLFDSPDFSKITGKPIKLTQVEHRAGFEWNEDGAGTTPSPGLQPAHLTFPLDYHLNQPFIFVLRDTDTGALLFIGKILDPRGP
modifications: full-length
notes: 50 kDa neurotrophic factor, member of the serpin superfamily
survival of RGCs from death [5]: 55%

From article PMC4604765, “Eye drop delivery of pigment epithelium-derived factor-34 promotes retinal ganglion cell neuroprotection and axon regeneration” (Molecular and Cellular Neurosciences, 2015)
